Consider five molecules from article PMC6078440, “Structural and functional analysis of Dickkopf 4 (Dkk4): New insights into Dkk evolution and regulation of Wnt signaling by Dkk and Kremen proteins” (The Journal of Biological Chemistry, 2018).

Usually Kd stands for the free concentration of one partner at which half of the binding sites on the other are occupied at equilibrium, for simple one-to-one binding. The term stoichiometry N denotes the number of molecules, sites or subunits per partner or assembly.

Values joined by “and” are separate entries in the source; they are usually repeats but may differ in a detail not shown here. Identical values can stand only once.

First the molecules themselves.
T1: N-terminal region of Dkk4 including CRD1, residues 19-97 (human, UniProt Q9UBT3 19-97)
T1 construct: Dickkopf 4 (Dkk4), human, N-terminal region with the NXI(R/K) motif and CRD1, residues 19-97; residues numbered from the N-terminal methionine; construct details are in the supporting material; also called Dkk4N; isolated Dkk4N region; not shown: His6 (with linker), C-terminal, kept
T1 sequence (looked up): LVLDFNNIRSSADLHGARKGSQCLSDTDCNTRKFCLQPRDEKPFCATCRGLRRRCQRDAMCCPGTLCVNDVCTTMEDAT

T2: Kremen1 extracellular domain Fc fusion protein (human, UniProt Q96MU8 21-392)
T2 chain: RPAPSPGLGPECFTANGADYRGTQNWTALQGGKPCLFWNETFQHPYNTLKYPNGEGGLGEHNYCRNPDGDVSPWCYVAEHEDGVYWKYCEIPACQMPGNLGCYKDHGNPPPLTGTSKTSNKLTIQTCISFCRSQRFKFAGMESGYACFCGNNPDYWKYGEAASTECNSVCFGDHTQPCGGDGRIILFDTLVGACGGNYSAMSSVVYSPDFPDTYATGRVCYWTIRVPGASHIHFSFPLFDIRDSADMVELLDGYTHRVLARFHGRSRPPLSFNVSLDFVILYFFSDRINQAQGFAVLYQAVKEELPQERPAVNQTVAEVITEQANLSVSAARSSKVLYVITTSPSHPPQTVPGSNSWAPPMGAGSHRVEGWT

T3: LRP6 E1E2-Fc (β-propeller domains 1 and 2 of low-density lipoprotein receptor-related protein 6, Fc fusion) (human)
T3 chain: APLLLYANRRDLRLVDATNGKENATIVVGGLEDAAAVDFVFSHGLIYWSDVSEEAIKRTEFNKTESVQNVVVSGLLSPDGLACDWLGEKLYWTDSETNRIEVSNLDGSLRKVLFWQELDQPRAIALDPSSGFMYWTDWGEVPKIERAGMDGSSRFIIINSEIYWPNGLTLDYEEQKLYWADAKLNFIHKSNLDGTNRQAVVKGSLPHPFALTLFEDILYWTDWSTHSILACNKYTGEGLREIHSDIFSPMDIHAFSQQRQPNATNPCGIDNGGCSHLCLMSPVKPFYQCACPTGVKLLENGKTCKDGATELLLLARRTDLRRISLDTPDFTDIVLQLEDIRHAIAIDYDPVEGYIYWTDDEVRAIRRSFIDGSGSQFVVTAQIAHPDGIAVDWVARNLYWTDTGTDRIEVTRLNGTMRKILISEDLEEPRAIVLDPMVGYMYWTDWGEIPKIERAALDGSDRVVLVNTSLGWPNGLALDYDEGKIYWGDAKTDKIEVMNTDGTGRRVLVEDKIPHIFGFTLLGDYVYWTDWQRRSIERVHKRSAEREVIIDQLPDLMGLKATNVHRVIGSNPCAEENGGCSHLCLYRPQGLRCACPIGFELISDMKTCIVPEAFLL

T4: Kremen1 extracellular domain Fc fusion protein (human, UniProt Q96MU8 21-392)
T4 construct: Kremen1 (Krm1), human, extracellular domain (kringle, WSC and CUB domains); also called Krm1 ECD-Fc; Krm1 ECD; source: expressed, in cell culture medium (supernatants); host in the supporting material
T4 sequence (looked up): T2 chain

B1: LRP6 E1E2-Fc (β-propeller domains 1 and 2 of low-density lipoprotein receptor-related protein 6, Fc fusion) (Fc fusion)
chain: T3 chain
B2: isolated Kremen1 extracellular domain, Fc tag removed (domain or fragment, human, UniProt Q96MU8 21-392, looked up)
chain: T2 chain
notes: Kremen1 (Krm1), human, extracellular domain (kringle, WSC and CUB domains); Eluted in SEC as monomer (35 kDa) and noncovalent dimer (70 kDa); also called Krm1 ECD; isolated Krm1 ECD; source: prepared from Krm1 ECD-Fc by removal of the Fc tag, size-exclusion chromatography; host in the supporting material
B3: full-length mature Dkk4 (Dickkopf 4), residues 19-224, His-tagged (natural protein, human, UniProt Q9UBT3 19-224, looked up)
chain: LVLDFNNIRSSADLHGARKGSQCLSDTDCNTRKFCLQPRDEKPFCATCRGLRRRCQRDAMCCPGTLCVNDVCTTMEDATPILERQLDEQDGTHAEGTTGHPVQENQPKRKPSIKKSQGRKGQEGESCLRTFDCGPGLCCARHFWTKICKPVLLEGQVCSRRGHKDTAQAPEIFQRCDCGPGLLCRSQLTSNRQHARLRVCQKIEKL
modifications: uniformly 15N/13C/2H-labelled in the NMR experiments
notes: residues numbered from the N-terminal methionine; also called Dkk4FL
B4: full-length mature Dkk2 (Dickkopf 2), residues 38-259, His-tagged (natural protein, human, UniProt Q9UBU2 38-259, looked up)
chain: IKSSLGGETPGQAANRSAGMYQGLAFGGSKKGKNLGQAYPCSSDKECEVGRYCHSPHQGSSACMVCRRKKKRCHRDGMCCPSTRCNNGICIPVTESILTPHIPALDGTRHRDRNHGHYSNHDLGWQNLGRPHTKMSHIKGHEGDPCLRSSDCIEGFCCARHFWTKICKPVLHQGEVCTKQRKKGSHGLEIFQRCDCAKGLSCKVWKDATYSSKARLHVCQKI
notes: also called Dkk2FL
B5: N-terminal region of Dkk4 including CRD1, residues 19-97 (domain or fragment)
chain: T1 sequence (looked up)

For data set [1], the target named is B3. Description: BLI; LRP6 E1E2-Fc (200 nM) loaded on AHC biosensors; Dkk4FL 1-1000 nM; 25 mM Na2HPO4, 100 mM NaCl, 0.05% Triton X-100, pH 6.5; steady-state fit to a one-site model. Particulars: both partners purified. (In general: BLI is a label-free optical method that tracks binding on a fibre tip over time.)
Data set [2] concerns the target T1, N-terminal region of Dkk4 including …. Description: BLI; LRP6 E1E2-Fc (200 nM) loaded on AHC biosensors; Dkk4N 0.1-100 μM; 25 mM Na2HPO4, 100 mM NaCl, 0.05% Triton X-100, pH 6.5 or 7.5 (not told which for the printed KD); later experiments with 0.1% BSA; steady-state fit to a one-site model. Particulars: both partners purified.
Data set [3] deals with the molecule itself. Description: SEC; Superdex 75 10/300 GL, 3 μM Krm1 ECD in 50 mM Na2HPO4, 100 mM NaCl, pH 7.5; apparent masses from a calibration with globular standards; monomer and dimer. For orientation: In gel filtration, larger molecules generally elute earlier.
Data set [4] concerns the target T2, Kremen1 extracellular domain Fc fusion …. Description: BLI; pH 6.5.
Data set [5] addresses T3, LRP6 E1E2-Fc (β-propeller domains 1 and …). Description: BLI; pH 7.5.
Data set [6] addresses T4, Kremen1 extracellular domain Fc fusion …. Description: BLI; Krm1 ECD-Fc loaded from supernatants on AHC biosensors; Dkk2FL or Dkk4FL 1-1000 nM, Dkk4N 0.1-100 μM; 25 mM Na2HPO4, 100 mM NaCl, 0.05% Triton X-100, pH 6.5; steady-state fit to a one-site model. Particulars: one partner purified.
In data set [7] the target is T3, LRP6 E1E2-Fc (β-propeller domains 1 and …). Description: BLI; pH 6.5.

On to B1, for which the Kd is 64 to 77 nM in data set [1] and 11000 to 30000 nM in data set [2].
In the case of B2, the “stoichiometry N” value in data set [3] was determined as 2.
On to B3, for which the Kd in data set [4] is 93.1 nM; in data set [5], 48.7 nM and 55.6 nM; in data set [6], 93 to 130 nM.
Molecule B4 had a Kd in data set [6] of around 12 nM.
In turn, B5 yielded a Kd in data set [7] of 11100 nM.
